Results as given in US20240358731A1, “SUMO PATHWAY AS AN OXYGEN SENSOR RELEVANT TO THE PATHOPHYSIOLOGY OF PULMONARY ARTERY HYPERTENSION AND CARDIAC ARRHYTHMIA” (Northeastern University, priority 2023, published 2024).

Experiments:
Kir2.4 = target: T1, Kir2.4 (Homo sapiens, UniProt Q9UNX9); assay: Two-electrode voltage-clamp of Kir2.4 currents in Xenopus oocytes; type: cell-based; design: expressed in transfected cells; host or cells: Xenopus oocytes (RNA injection); settings: expression of SENP1
T1 sequence (Q9UNX9 1-436): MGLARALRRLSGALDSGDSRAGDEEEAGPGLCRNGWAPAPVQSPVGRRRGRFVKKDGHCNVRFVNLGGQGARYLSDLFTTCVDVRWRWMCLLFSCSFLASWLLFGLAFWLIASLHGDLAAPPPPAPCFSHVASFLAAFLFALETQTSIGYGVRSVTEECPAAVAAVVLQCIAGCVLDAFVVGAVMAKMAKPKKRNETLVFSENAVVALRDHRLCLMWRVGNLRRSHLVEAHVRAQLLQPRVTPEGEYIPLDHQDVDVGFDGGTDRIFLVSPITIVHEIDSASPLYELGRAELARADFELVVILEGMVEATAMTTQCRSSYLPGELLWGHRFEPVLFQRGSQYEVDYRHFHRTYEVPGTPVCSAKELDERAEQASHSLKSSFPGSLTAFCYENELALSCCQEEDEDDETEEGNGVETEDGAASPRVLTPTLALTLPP
Source text: FIG. 5A discloses SEQ ID NOS 6-9, respectively, in order of appearance. […] SENP1 increases the current. […] SUMO sensitivity is transferred to Kir2.3 when the site in Kir2.1 is recreated by mutagenesis (Kir2.3-N25D).
Co-expressed SUMO decreases Kir2.4 currents in Xenopus oocytes. Using the SUMOplot algorithm to assess potential SUMOylation sites based on the canonical motif ψ-K-X-E/D, we identified the high probability SUMO site V-K54-K-D (SEQ ID NO: 4) in the N-terminal sequence of Kir2.4. SUMO covalently modifies Kir2.4 at K54 (FIG. 5) and tested the idea using two-electrode voltage-clamp (TEVC), a sensitive assay to study the regulation of Kir channels. Kir2.4 currents, assessed at −80 mV in a high K^+ (96 mM) bath solution, decreased in a dose-dependent manner with co-expression of SUMO1 (FIG. 5). Co-injection of 5 ng of human SUMO1 RNA decreased Kir2.4 currents by ˜50%. In contrast, expression of SENP1 increased Kir2.4 by ˜50%. […] The analogous sequence in Kir2.2 and Kir2.3 is V-K-K-N(SEQ ID NO: 5), which lacks the terminal aspartic acid, reduced the probability of SUMOylation from 0.93 to 0.31. Consistent with this, Kir2.3 currents were insensitive to SUMO1 and SENP1. […] This last result is consistent with a protein-protein interaction between the channel and SUMO1.

Kir2.1 channels = target: T2, Kir2.1 channels (Homo sapiens, UniProt P63252); assay: Whole-cell patch-clamp of heterologous Kir2.1 channels in HEK293T cells under hypoxia; type: cell-based; settings: agent in recording pipette (SENP1 2 μM)
T2 construct: expressed in transfected cells; host or cells: HEK293T
T2 sequence (P63252 1-427): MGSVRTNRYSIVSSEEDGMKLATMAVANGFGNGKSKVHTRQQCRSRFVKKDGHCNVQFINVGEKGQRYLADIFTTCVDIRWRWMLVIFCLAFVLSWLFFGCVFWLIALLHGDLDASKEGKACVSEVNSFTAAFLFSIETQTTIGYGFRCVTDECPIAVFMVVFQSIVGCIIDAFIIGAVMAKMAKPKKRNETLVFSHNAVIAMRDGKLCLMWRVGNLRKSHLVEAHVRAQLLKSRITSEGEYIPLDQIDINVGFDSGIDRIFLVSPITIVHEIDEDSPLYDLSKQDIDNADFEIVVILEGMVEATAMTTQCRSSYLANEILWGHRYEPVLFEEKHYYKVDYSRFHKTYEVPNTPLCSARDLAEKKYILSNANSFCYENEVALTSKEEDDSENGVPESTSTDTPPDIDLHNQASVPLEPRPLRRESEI
Experimental: To knockdown Kir2.1 expression, RVCMs were transduced with lentiviral particles carrying cGFP and shRNA targeting KCNJ2-mRNA for the channel. Kir2.1 knockdown cells (Kir2.1kd-CMs) were identified by expression of cGFP. Cells were studied with control pipette solution, or with pipette solutions containing purified SUMO1 (1 μM) or SENP1 (2 μM). Where indicated, the control pipette solution contained diC8 PIP2. Paired patch-clamp data were analyzed by Students t-test; ***, P<0.01. […] Kir2.1kd-CMs are identified by expression of GFP (inset, scale bar=10 μm). […] The arrow indicates the change in current-magnitude between exposure to ambient O2 and 2% O2 in the same cell. Right, Concentration-response curve showing that including diC8-PIP2 in the pipette opposes hypoxic-inhibition of IK1 in control RVCMs and RVCMs expressing the scrambled shRNA. The hypoxic-response is diminished in Kir2.1kd-CMs. Data are mean±s.d. for 7-8 cells per condition. […] Current inhibition is diminished when SENP1 is included in the recording pipette and is not observed when SUMO-insensitive Kir2.1-K49Q channels are studied. Data are mean±s.d. for 6 cells per condition.
Hypoxic-inhibition of IK1/Kir2.1 is reduced by diC8-PIP2 in a concentration-dependent manner. We have shown that adding the exogenous, soluble PIP2 analog diC8-PIP2 into the patch-pipette opposes hypoxic-inhibition of IK1 (FIG. 4). […]

B1: SENP1: purified deSUMOylating enzyme (SUMO specific protease) introduced via the recording pipette or expressed (protein, UniProt Q9P0U3 1-644, looked up)
Sentrin-specific protease 1: MDDIADRMRMDAGEVTLVNHNSVFKTHLLPQTGFPEDQLSLSDQQILSSRQGHLDRSFTCSTRSAAYNPSYYSDNPSSDSFLGSGDLRTFGQSANGQWRNSTPSSSSSLQKSRNSRSLYLETRKTSSGLSNSFAGKSNHHCHVSAYEKSFPIKPVPSPSWSGSCRRSLLSPKKTQRRHVSTAEETVQEEEREIYRQLLQMVTGKQFTIAKPTTHFPLHLSRCLSSSKNTLKDSLFKNGNSCASQIIGSDTSSSGSASILTNQEQLSHSVYSLSSYTPDVAFGSKDSGTLHHPHHHHSVPHQPDNLAASNTQSEGSDSVILLKVKDSQTPTPSSTFFQAELWIKELTSVYDSRARERLRQIEEQKALALQLQNQRLQEREHSVHDSVELHLRVPLEKEIPVTVVQETQKKGHKLTDSEDEFPEITEEMEKEIKNVFRNGNQDEVLSEAFRLTITRKDIQTLNHLNWLNDEIINFYMNMLMERSKEKGLPSVHAFNTFFFTKLKTAGYQAVKRWTKKVDVFSVDILLVPIHLGVHWCLAVVDFRKKNITYYDSMGGINNEACRILLQYLKQESIDKKRKEFDTNGWQLFSKKSQEIPQQMNGSDCGMFACKYADCITKDRPINFTQQHMPYFRKRMVWEILHRKLL
**Q.** Which results are given for B1?
**A.** increase of Kir2.4 currents (Kir2.4): ~50%; effect on hypoxic inhibition of Kir2.1 channels (Kir2.1 channels): ameliorated
